# Experimental data as given in patent publication US20180155451A1 (published 2018).
# B1: GpH7-A5/GpH7-B3 variant S324_06M/GpL16-k0 (heterodimerized antibody, He Ab) (antibody, human IgG1, kappa)
# heavy 1: not shown
# heavy 2: not shown
# light: DIVMTQSPLSLPVTPGEPASISCQASESLVHSNRNTYLHWYLQKPGQSPQLLIYKVSNRFSGVPDRFSGSGSGTDFTLKISRVEAEDVGVYYCSQNTHVPPTFGQGTKVEIERTVAAPSVFIFPPSDEQLKSGTASVVCLLNNFYPREAKVQWKVDNALQSGNSQESVTEQDSKDSTYSLSSTLTLSKADYEKHKVYACEVTHQGLSSPVTKSFNRGEC
# notes: Mutation in one H chain only; also called S324_06M He Ab
# B2: GpH7-A5/GpH7-B3 variant Y296_20W/GpL16-k0 (heterodimerized antibody, He Ab) (antibody, human IgG1, kappa)
# heavy 1: not shown
# heavy 2: not shown
# light: B1 light
# notes: Mutation in one H chain only; also called Y296_20W He Ab
# B3: GpH7-A5/GpH7-B3 variant T335_05P/GpL16-k0 (heterodimerized antibody, He Ab) (antibody, human IgG1, kappa)
# heavy 1: not shown
# heavy 2: not shown
# light: B1 light
# notes: Mutation in one H chain only; also called T335_05P He Ab
# B4: GpH7-A5/GpH7-B3 variant S324_20W/GpL16-k0 (heterodimerized antibody, He Ab) (antibody, human IgG1, kappa)
# heavy 1: not shown
# heavy 2: not shown
# light: B1 light
# notes: Mutation in one H chain only; also called S324_20W He Ab
# B5: GpH7-A5/GpH7-B3 variant S239_18N/GpL16-k0 (heterodimerized antibody, He Ab) (antibody, human IgG1, kappa)
# heavy 1: not shown
# heavy 2: not shown
# light: B1 light
# notes: Mutation in one H chain only; also called S239_18N He Ab
# B6: GpH7-A5/GpH7-B3 variant S298_03V/GpL16-k0 (heterodimerized antibody, He Ab) (antibody, human IgG1, kappa)
# heavy 1: not shown
# heavy 2: not shown
# light: B1 light
# notes: Mutation in one H chain only; also called S298_03V He Ab
# B7: GpH7-B3 variant T335_08L/GpL16-k0 (homodimerized antibody, Ho Ab) (antibody, human IgG1, kappa)
# heavy: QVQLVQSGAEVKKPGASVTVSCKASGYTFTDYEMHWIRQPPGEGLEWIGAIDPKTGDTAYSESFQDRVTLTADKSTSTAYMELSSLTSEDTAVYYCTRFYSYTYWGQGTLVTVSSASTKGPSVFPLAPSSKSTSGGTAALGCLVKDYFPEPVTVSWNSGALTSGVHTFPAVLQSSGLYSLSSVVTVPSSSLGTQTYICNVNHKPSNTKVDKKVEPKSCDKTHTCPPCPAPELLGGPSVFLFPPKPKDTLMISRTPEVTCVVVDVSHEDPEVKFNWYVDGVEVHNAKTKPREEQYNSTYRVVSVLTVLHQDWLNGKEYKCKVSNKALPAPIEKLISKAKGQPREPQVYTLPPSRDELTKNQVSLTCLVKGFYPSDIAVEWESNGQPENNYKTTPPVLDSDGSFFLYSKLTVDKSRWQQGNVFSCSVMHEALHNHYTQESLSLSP
# light: B1 light
# notes: Mutation in both H chains; also called T335_08L Ho Ab
# B8: GpH7-B3 variant T335_06M/GpL16-k0 (homodimerized antibody, Ho Ab) (antibody, human IgG1, kappa)
# heavy: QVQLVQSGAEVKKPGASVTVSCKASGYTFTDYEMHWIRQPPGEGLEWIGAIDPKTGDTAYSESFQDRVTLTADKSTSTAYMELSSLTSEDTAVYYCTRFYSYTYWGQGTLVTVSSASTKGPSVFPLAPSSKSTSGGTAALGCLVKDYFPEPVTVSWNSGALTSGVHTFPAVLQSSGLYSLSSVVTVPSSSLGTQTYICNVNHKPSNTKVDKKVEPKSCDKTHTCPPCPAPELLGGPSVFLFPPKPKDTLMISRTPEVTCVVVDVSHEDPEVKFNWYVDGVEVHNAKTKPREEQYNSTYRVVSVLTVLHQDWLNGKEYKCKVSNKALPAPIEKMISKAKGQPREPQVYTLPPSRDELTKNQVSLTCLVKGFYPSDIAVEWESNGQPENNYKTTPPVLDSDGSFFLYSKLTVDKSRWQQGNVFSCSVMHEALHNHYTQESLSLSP
# light: B1 light
# notes: Mutation in both H chains; also called T335_06M Ho Ab
# B9: GpH7-B3 variant T335_05P/GpL16-k0 (homodimerized antibody, Ho Ab) (antibody, human IgG1, kappa)
# heavy: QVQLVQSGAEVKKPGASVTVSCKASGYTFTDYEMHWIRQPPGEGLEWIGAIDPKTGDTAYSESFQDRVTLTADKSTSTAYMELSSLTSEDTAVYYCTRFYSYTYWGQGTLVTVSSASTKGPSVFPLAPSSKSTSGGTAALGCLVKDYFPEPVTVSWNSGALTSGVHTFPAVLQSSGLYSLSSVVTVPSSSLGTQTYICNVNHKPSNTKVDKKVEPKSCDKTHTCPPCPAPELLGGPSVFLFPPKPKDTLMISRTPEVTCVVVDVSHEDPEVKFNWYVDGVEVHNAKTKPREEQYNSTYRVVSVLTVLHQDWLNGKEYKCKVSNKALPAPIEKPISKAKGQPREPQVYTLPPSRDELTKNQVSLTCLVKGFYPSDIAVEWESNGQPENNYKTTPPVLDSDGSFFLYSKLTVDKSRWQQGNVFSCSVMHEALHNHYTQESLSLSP
# light: B1 light
# notes: Mutation in both H chains; also called T335_05P Ho Ab
# B10: GpH7-A5/GpH7-B3 variant S324_09D/GpL16-k0 (heterodimerized antibody, He Ab) (antibody, human IgG1, kappa)
# heavy 1: not shown
# heavy 2: not shown
# light: B1 light
# notes: Mutation in one H chain only; also called S324_09D He Ab
# B11: GpH7-A5/GpH7-B3 variant T335_09D/GpL16-k0 (heterodimerized antibody, He Ab) (antibody, human IgG1, kappa)
# heavy 1: not shown
# heavy 2: not shown
# light: B1 light
# notes: Mutation in one H chain only; also called T335_09D He Ab
# B12: GpH7-A5/GpH7-B3 variant S324_14T/GpL16-k0 (heterodimerized antibody, He Ab) (antibody, human IgG1, kappa)
# heavy 1: not shown
# heavy 2: not shown
# light: B1 light
# notes: Mutation in one H chain only; also called S324_14T He Ab
# B13: GpH7-A5/GpH7-B3 variant S337_16H/GpL16-k0 (heterodimerized antibody, He Ab) (antibody, human IgG1, kappa)
# heavy 1: not shown
# heavy 2: not shown
# light: B1 light
# notes: Mutation in one H chain only; also called S337_16H He Ab
# B14: GpH7-B3 variant Y296_20W/GpL16-k0 (homodimerized antibody, Ho Ab) (antibody, human IgG1, kappa)
# heavy: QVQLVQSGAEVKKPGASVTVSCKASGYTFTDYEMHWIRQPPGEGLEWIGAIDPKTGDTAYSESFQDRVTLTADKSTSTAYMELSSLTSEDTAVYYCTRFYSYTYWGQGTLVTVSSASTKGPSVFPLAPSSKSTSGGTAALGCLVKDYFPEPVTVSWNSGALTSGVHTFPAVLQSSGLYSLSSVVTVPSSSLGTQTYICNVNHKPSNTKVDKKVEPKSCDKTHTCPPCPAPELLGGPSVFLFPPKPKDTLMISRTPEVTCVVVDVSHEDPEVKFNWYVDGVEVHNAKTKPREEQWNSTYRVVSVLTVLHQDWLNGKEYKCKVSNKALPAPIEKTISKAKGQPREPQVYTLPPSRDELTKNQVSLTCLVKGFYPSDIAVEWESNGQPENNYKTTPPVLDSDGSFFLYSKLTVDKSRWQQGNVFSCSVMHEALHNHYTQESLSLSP
# light: B1 light
# notes: Mutation in both H chains; also called Y296_20W Ho Ab
# B15: GpH7-A5/GpH7-B3 variant Y300_08L/GpL16-k0 (heterodimerized antibody, He Ab) (antibody, human IgG1, kappa)
# heavy 1: not shown
# heavy 2: not shown
# light: B1 light
# notes: Mutation in one H chain only; also called Y300_08L He Ab
# B16: GpH7-A5/GpH7-B3 variant S337_01G/GpL16-k0 (heterodimerized antibody, He Ab) (antibody, human IgG1, kappa)
# heavy 1: not shown
# heavy 2: not shown
# light: B1 light
# notes: Mutation in one H chain only; also called S337_01G He Ab
# B17: GpH7-A5/GpH7-B3 variant T335_06M/GpL16-k0 (heterodimerized antibody, He Ab) (antibody, human IgG1, kappa)
# heavy 1: not shown
# heavy 2: not shown
# light: B1 light
# notes: Mutation in one H chain only; also called T335_06M He Ab
# B18: GpH7-B3 variant Y300_08L/GpL16-k0 (homodimerized antibody, Ho Ab) (antibody, human IgG1, kappa)
# heavy: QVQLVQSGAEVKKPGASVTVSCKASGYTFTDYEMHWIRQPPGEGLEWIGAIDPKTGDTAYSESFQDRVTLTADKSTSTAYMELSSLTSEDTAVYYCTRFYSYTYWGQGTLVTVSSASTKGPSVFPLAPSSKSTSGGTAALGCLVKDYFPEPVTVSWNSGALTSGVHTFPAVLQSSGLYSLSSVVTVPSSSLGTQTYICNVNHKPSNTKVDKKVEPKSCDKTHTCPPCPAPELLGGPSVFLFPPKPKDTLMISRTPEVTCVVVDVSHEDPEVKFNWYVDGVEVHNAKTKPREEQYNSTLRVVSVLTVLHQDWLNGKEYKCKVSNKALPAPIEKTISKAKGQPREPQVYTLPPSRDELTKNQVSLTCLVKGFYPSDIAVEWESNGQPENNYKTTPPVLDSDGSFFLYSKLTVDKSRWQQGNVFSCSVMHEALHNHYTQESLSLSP
# light: B1 light
# notes: Mutation in both H chains; also called Y300_08L Ho Ab
# B19: GpH7-A5/GpH7-B3 variant T335_08L/GpL16-k0 (heterodimerized antibody, He Ab) (antibody, human IgG1, kappa)
# heavy 1: not shown
# heavy 2: not shown
# light: B1 light
# notes: Mutation in one H chain only; also called T335_08L He Ab
# B20: GpH7-B3 variant T335_09D/GpL16-k0 (homodimerized antibody, Ho Ab) (antibody, human IgG1, kappa)
# heavy: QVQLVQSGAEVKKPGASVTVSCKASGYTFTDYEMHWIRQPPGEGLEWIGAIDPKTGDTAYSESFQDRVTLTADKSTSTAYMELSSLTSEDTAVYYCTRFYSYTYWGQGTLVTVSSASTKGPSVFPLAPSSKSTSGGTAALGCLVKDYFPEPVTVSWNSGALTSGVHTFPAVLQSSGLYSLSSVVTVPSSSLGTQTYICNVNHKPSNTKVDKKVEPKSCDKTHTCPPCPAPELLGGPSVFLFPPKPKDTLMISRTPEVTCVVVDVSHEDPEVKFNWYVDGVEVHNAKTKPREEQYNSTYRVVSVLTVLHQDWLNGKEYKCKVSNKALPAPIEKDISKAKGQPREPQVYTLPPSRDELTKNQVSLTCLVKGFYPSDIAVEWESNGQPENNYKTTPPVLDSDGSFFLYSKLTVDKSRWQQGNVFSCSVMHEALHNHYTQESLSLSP
# light: B1 light
# notes: Mutation in both H chains; also called T335_09D Ho Ab
# B21: GpH7-A5/GpH7-B3 variant S239_10E/GpL16-k0 (heterodimerized antibody, He Ab) (antibody, human IgG1, kappa)
# heavy 1: not shown
# heavy 2: not shown
# light: B1 light
# notes: Mutation in one H chain only; also called S239_10E He Ab
# Biological target: T1, FcγRIIIa extracellular domain with C-terminal His tag (human, UniProt P08637 17-208)
# T1 construct: extracellular domain; also called 3a; FcgRIIIa
# T1 sequence (P08637 17-208): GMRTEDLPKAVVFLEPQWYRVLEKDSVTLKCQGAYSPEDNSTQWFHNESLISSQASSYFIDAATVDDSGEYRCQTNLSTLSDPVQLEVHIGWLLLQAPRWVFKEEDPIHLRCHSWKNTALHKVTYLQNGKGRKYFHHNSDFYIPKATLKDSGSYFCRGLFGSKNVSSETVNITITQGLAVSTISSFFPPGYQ
# Assay: SPR (Biacore), antibody captured on antigen-peptide chip, FcγR analyte, relative binding
He/Con_3a,Ho/Con_3a,Binder
113 % of GpH7-A5/GpH7-B3/GpL16-k0 (=100),–,B1
135 % of GpH7-A5/GpH7-B3/GpL16-k0 (=100),–,B2
105 % of GpH7-A5/GpH7-B3/GpL16-k0 (=100),–,B3
102 % of GpH7-A5/GpH7-B3/GpL16-k0 (=100),–,B4
110 % of GpH7-A5/GpH7-B3/GpL16-k0 (=100),–,B5
109 % of GpH7-A5/GpH7-B3/GpL16-k0 (=100),–,B6
–,103 % of GpH7-B3/GpL16-k0 (=100),B7
–,107 % of GpH7-B3/GpL16-k0 (=100),B8
–,119 % of GpH7-B3/GpL16-k0 (=100),B9
101 % of GpH7-A5/GpH7-B3/GpL16-k0 (=100),–,B10
108 % of GpH7-A5/GpH7-B3/GpL16-k0 (=100),–,B11
103 % of GpH7-A5/GpH7-B3/GpL16-k0 (=100),–,B12
108 % of GpH7-A5/GpH7-B3/GpL16-k0 (=100),–,B13
–,146 % of GpH7-B3/GpL16-k0 (=100),B14
105 % of GpH7-A5/GpH7-B3/GpL16-k0 (=100),–,B15
102 % of GpH7-A5/GpH7-B3/GpL16-k0 (=100),–,B16
102 % of GpH7-A5/GpH7-B3/GpL16-k0 (=100),–,B17
–,105 % of GpH7-B3/GpL16-k0 (=100),B18
102 % of GpH7-A5/GpH7-B3/GpL16-k0 (=100),–,B19
–,114 % of GpH7-B3/GpL16-k0 (=100),B20
181 % of GpH7-A5/GpH7-B3/GpL16-k0 (=100),–,B21
